Results as given in article PMC5577252.

Target: PSII-LHCII supercomplexes of sucrose gradient band α3 (α3G with glutaraldehyde) (pea (Pisum sativum L., endogenous in leaves)) (UniProt P06585)

fast chlorophyll a fluorescence induction (OJIP), O–J curvature parameter C; control (sucrose gradient buffer with cations, paired): 0.35
fast chlorophyll a fluorescence induction (OJIP), O–J curvature parameter C; no salts (salt-free buffer, unpaired): 0.14
fast chlorophyll a fluorescence induction (OJIP), connectivity among PSII units parameter p; control (sucrose gradient buffer with cations, paired): 0.3
fast chlorophyll a fluorescence induction (OJIP), connectivity among PSII units parameter p; no salts (salt-free buffer, unpaired): 0.13
fast chlorophyll a fluorescence induction (OJIP), overall grouping probability p2G; control (sucrose gradient buffer with cations, paired): 0.21
fast chlorophyll a fluorescence induction (OJIP), overall grouping probability p2G; no salts (salt-free buffer, unpaired): 0.15
fast chlorophyll a fluorescence induction (OJIP), probability of connectivity between PSII units ω; control (sucrose gradient buffer with cations, paired): 0.2
fast chlorophyll a fluorescence induction (OJIP), probability of connectivity between PSII units ω; no salts (salt-free buffer, unpaired): 0.06
Substance: PSII-LHCII supercomplexes of sucrose gradient band α3 (α3G with glutaraldehyde) (from UniProt P06585 1-344; P06006 1-353; P06004 15-473; P14226 82-329; P27520 38-265)
